Measured values: patent publication US20230265208A1 (Dana-Farber, published 2023)

Legend:
[1] = target: T1, MUC1 on HCT116/MUC1 cells (human, UniProt P15941 24-1255); assay: flow cytometry titration on HCT116/MUC1 cells
T1 construct: whole, on cells; Human colon cancer cell line engineered to express MUC1
Experimental: (§1) FACS titration of humanized antibodies. For affinity ranking of humanized antibodies to HCT116/MUC1 cells (a human colon cancer cell line engineered to express MUC1), the purified antibodies were subject to FACs titration. In brief, HCT116/MUC1 cells were cultured and harvested by centrifugation. About 2.5×10⁵ cells per well were washed with PBS twice and incubated in 200 μl of serial dilutions of antibodies for 30 min at 4° C. After washing with PBS., secondary antibody (3 μg Goat anti-Human IgG(H+L) I Fluor 647) was added to the cells and incubated for 30 min at 4° C. After washing with PBS, cells were analyzed for binding (EC₅₀) by using FACS Calibur (BD Bioscience, San Jose, Calif.) and Flowjo software.
(§2) FACS titration of humanized antibodies. Each of the 7 antibodies was titrated for its binding capacity to HCT116/MUC1 cells at various concentrations and the results are mentioned in Table 8 and with a graphical representation in FIG. 5.
T1 sequence (P15941 24-1255): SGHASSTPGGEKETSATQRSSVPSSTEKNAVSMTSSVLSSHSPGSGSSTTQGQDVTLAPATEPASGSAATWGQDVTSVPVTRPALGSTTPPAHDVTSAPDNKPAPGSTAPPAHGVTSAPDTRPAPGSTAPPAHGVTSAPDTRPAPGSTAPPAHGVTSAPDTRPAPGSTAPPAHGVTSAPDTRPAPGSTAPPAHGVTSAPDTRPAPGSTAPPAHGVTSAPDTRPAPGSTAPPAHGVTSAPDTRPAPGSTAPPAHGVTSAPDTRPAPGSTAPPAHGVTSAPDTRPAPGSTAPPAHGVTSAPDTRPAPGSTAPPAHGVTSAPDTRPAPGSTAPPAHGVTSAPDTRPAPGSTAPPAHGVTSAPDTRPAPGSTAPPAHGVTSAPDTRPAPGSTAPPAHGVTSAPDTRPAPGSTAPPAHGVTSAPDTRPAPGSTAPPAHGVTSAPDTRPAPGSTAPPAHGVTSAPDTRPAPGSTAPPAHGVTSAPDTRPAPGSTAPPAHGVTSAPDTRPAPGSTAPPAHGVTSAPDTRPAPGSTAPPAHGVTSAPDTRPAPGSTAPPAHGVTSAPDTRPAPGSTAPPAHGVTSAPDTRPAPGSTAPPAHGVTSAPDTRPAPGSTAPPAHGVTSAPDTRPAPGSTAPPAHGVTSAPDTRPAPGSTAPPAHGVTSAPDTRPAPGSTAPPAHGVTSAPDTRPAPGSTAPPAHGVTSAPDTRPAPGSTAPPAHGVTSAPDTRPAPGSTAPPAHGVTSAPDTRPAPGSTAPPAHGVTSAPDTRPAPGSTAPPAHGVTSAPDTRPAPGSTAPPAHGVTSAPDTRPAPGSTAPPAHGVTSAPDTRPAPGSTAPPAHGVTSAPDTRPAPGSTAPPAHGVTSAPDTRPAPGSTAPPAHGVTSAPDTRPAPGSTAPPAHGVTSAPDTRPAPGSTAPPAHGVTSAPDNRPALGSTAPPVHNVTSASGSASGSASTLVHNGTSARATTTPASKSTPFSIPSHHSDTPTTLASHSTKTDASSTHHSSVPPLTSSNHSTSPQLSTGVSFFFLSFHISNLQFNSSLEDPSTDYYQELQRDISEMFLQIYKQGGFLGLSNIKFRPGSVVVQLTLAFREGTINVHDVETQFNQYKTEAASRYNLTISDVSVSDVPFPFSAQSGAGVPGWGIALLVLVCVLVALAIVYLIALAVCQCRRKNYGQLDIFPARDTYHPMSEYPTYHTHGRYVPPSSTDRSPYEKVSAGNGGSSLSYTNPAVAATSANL

[2] = target: T2, MUC1 on HCT116/MUC1 cells (human, UniProt P15941 24-1255); assay: flow cytometry on HCT116/MUC1 cells; antibody at 0.411523 nM
T2 sequence (P15941 24-1097, chain 1 of 2): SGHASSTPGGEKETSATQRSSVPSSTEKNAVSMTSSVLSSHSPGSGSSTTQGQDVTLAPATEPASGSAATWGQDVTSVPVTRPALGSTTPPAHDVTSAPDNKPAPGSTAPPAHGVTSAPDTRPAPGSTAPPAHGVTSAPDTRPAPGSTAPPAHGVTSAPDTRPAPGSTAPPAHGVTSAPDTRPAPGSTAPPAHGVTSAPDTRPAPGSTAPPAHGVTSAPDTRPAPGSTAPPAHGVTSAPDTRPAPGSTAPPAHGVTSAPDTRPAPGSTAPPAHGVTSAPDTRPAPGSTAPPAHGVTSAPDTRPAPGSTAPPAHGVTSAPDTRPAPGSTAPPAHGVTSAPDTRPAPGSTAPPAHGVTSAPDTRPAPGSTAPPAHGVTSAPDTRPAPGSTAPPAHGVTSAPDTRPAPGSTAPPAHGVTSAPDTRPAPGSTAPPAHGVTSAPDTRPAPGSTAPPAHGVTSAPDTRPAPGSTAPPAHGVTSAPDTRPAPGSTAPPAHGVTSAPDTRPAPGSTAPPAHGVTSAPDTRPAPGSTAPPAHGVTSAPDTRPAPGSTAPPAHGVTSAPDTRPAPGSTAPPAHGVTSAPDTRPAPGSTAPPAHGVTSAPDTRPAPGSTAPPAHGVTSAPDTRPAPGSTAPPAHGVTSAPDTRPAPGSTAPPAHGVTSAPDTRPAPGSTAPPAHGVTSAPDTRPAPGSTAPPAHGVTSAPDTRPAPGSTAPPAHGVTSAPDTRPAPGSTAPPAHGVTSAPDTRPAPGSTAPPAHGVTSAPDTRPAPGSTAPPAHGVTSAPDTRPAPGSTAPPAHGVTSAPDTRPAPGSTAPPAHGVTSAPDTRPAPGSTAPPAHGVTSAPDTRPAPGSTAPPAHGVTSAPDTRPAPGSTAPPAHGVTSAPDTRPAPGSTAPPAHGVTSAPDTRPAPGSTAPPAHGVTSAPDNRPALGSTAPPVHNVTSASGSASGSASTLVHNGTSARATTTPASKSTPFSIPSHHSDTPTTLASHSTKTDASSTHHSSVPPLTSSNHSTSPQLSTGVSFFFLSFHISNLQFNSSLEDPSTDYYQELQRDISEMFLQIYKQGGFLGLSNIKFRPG
T2 sequence (P15941 1098-1255, chain 2 of 2): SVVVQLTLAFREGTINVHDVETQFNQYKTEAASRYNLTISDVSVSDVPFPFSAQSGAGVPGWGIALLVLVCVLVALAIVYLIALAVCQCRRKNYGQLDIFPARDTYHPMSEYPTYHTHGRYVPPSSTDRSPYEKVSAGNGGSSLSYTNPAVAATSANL

[3] = target: T2, MUC1 on HCT116/MUC1 cells; assay: flow cytometry on HCT116/MUC1 cells; antibody at 0.015242 nM
[4] = target: T2, MUC1 on HCT116/MUC1 cells; assay: flow cytometry on HCT116/MUC1 cells; antibody at 100 nM
[5] = target: T2, MUC1 on HCT116/MUC1 cells; assay: flow cytometry on HCT116/MUC1 cells; antibody at 0.137174 nM
[6] = target: T2, MUC1 on HCT116/MUC1 cells; assay: flow cytometry on HCT116/MUC1 cells; antibody at 0.045725 nM
[7] = target: T2, MUC1 on HCT116/MUC1 cells; assay: flow cytometry on HCT116/MUC1 cells; antibody at 33.33333 nM
[8] = target: T2, MUC1 on HCT116/MUC1 cells; assay: flow cytometry on HCT116/MUC1 cells; antibody at 300 nM
[9] = target: T2, MUC1 on HCT116/MUC1 cells; assay: flow cytometry on HCT116/MUC1 cells; antibody at 11.11111 nM
[10] = target: T2, MUC1 on HCT116/MUC1 cells; assay: flow cytometry titration on HCT116/MUC1 cells
Experimental: as §1, §2

[11] = target: T2, MUC1 on HCT116/MUC1 cells; assay: flow cytometry on HCT116/MUC1 cells; antibody at 1.234568 nM
[12] = target: T2, MUC1 on HCT116/MUC1 cells; assay: flow cytometry on HCT116/MUC1 cells; antibody at 3.703704 nM

Binder	EC50 [1]	FACS titration signal [2]	FACS titration signal [3]	FACS titration signal [4]	FACS titration signal [5]	FACS titration signal [6]	FACS titration signal [7]	FACS titration signal [8]	FACS titration signal [9]	EC50 [10]	FACS titration signal [11]	FACS titration signal [12]
VH5 + VL3 (antibody, human IgG1, kappa, V domains shown, Full-length humanized IgG expressed in HEK293 and purified on protein A. Constant regions not specified; also called #23 (inferred from 5x5 numbering)) VH: EVQLVQSGAEVKKPGESLKISCKGSGFTFNYFWIEWVRQMPGKGLEWMGEILPGTGSTNYNEKFKGQVTISADKSISTAYLQWSSLKASDTAMYYCARYDYTSSMDYWGQGTLVTVSS VL: EIVLTQSPATLSLSPGERATLSCRASESVQYSGTSLMHWYQQKPGQAPRLLIYGASNVETGIPARFSGSGSGTDFTLTISSLEPEDFAVYYCQQNWKVPWTFGQGTKVEIKR	12.2 nM											
Chimeric IgG (antibody, V domains shown, Chimera of the parental mouse antibody with a human Fc (captured by anti-human Fc); also called chimeric antibody; parent chimeric antibody) VH: QVQLQQSGAELMKPGASVKISCKAIGFTFNYFWIEWVKQRPGHGLEWIGEILPGTGSTNYNEKFKGKAIFTADTSSNTAYMQLRSLTSEDSAVYYCVRYDYTSSMDYWGQGTSVTVSS VL: DIVLTQSPGSLAVSLGQSVTISCRASESVQYSGTSLMHWYQQKPGQPPKLLIYGASNVETGVPARFSGSGSGTDFSLNIHPVEEDDIAMYFCQQNWKVPWTFGGGTKLEIKR	6.08 nM											
VH1 + VL3 (antibody, V domains shown) VH: QVQLVQSGAEVKKPGSSVKVSCKASGYAFSNFWMNWVRQAPGQGLEWMGQIYPGDGDTNYNGKFKGRVTITADKSTSTAYMELSSLRSEDTAVYYCARSYYRSAWFAYWGQGTLVTVSS VL: EIVLTQSPATLSLSPGERATLSCRASQSIGTSIHWYQQKPGQAPRLLIYYASESISGIPARFSGSGSGTDFTLTISSLEPEDFAVYYCQQSNNWPLTFGGGTKVEIK		6.22	5.76	41.7	9.47	8.96	41	42	20.2	13.2 nM	7.09	10.4
VH2 + VL3 (antibody, V domains shown) VH: QVQLVQSGAEVKKPGASVKVSCKASGYAFSNFWMNWVRQAPGQGLEWMGQIYPGDGDTNYNGKFKGRVTMTRDTSTSTVYMELSSLRSEDTAVYYCARSYYRSAWFAYWGQGTLVTVSS VL: EIVLTQSPATLSLSPGERATLSCRASQSIGTSIHWYQQKPGQAPRLLIYYASESISGIPARFSGSGSGTDFTLTISSLEPEDFAVYYCQQSNNWPLTFGGGTKVEIK		6.48	8.96	43.8	9.04	5.46	43	44.1	21.5	13.3 nM	10.6	13.9
VH5 + VL2 (antibody, V domains shown) VH: EVQLVQSGAEVKKPGESLKISCKGSGYAFSNFWMNWVRQMPGKGLEWMGQIYPGDGDTNYNGKFKGQVTISADKSISTAYLQWSSLKASDTAMYYCARSYYRSAWFAYWGQGTLVTVSL VL: EIVMTQSPATLSVSPGERATLSCRASQSIGTSIHWYQQKPGQAPRLLIYYASESISGIPARFSGSGSGTEFTLTISSLQSEDFAVYYCQQSNNWPLTFGGGTKVEIK		9.71	5.88	48.9	9.2	6.76	48.1	46.3	33.4	7.69 nM	11.8	17.3
VH1 + VL4 (antibody, V domains shown) VH: QVQLVQSGAEVKKPGSSVKVSCKASGYAFSNFWMNWVRQAPGQGLEWMGQIYPGDGDTNYNGKFKGRVTITADKSTSTAYMELSSLRSEDTAVYYCARSYYRSAWFAYWGQGTLVTVSS VL: AIQLTQSPSSLSASVGDRVTITCRASQSIGTSIHWYQQKPGKAPKLLIYYASESISGVPSRFSGSGSGTDFTLTISSLQPEDFATYYCQQSNNWPLTFGGGTKVEIK		10.1	5.73	56.2	5.5	5.99	57.8	53.9	32.3	9.8 nM	7.61	16.6
